Data: publication PMC8351545 (Molecular Biology of the Cell, 2021)

Legend:
[1] = molecular target: recombinant phosphomimetic CENP-T/W complex (T11D, T27D, T85D) (human) (UniProt Q96BT3); test: pull-down
[2] = molecular target: recombinant full-length wild-type CENP-T/W complex (human, UniProt Q96BT3 1-561; Q5EE01 1-88); test: pull-down
Chain of recombinant full-length wild-type CENP-T/W complex (Q96BT3 whole entry, chain 1 of 2): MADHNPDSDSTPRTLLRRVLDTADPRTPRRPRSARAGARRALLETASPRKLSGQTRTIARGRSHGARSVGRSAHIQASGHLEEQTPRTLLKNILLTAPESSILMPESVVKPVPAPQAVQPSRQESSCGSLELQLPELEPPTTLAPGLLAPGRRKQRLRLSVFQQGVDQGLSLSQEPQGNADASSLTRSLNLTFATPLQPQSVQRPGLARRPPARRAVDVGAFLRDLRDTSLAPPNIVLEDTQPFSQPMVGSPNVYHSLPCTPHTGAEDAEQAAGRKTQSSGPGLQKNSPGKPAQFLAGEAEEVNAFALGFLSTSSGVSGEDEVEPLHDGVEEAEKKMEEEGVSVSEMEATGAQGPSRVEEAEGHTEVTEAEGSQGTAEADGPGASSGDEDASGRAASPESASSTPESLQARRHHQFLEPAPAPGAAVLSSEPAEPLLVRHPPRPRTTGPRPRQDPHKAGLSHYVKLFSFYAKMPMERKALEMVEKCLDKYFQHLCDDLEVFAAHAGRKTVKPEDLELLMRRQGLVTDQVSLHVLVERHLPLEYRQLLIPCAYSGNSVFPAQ
Chain of recombinant full-length wild-type CENP-T/W complex (Q5EE01 whole entry, chain 2 of 2): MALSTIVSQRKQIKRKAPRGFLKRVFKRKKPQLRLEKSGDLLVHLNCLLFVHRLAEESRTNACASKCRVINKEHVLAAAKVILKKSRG

Chain of recombinant phosphomimetic CENP-T/W complex (T11D, T27D, T85D) (human) (Q96BT3 whole entry T11D/T27D/T85D, chain 1 of 2): as the sequence (Q96BT3 whole entry, chain 1 of 2) above, with T11D, T27D, T85D counted along it
Chain of recombinant phosphomimetic CENP-T/W complex (T11D, T27D, T85D) (human) (Q5EE01 whole entry, chain 2 of 2, further chain): as the sequence (Q5EE01 whole entry, chain 2 of 2) above

| Molecule | fold weaker recruitment than the Ndc80 proteins with shortened stalk [1] [times weaker] | binding result [2] |
| --- | --- | --- |
| recombinant full-length GFP-fused human Ndc80 complex (from UniProt O14777 1-642; Q9BZD4 1-464; Q8NBT2 1-197; Q9HBM1 1-224) | 5 |  |
| human Bonsai Ndc80 complex (Bonsai Ndc80-GFP) (complex) chain 1: MKRSSVSSGGAGRLSMQELRSQDVNKQGLYTPQTKEKPTFGKLSINKPTSERKVSLFGKRTSGHGSRNSQLGIFSSSEKIKDPRPLNDKAFIQQCIRQLCEFLTENGYAHNVSMKSLQAPSVKDFLKIFTFLYGFLCPSYELPDTKFEEEVPRIFKDLGYPFALSKSSMYTVGAPHTWPHIVAALVWLIDCIKIHTAMKESSPLFDDGQPWGEETEDGIMHNKLFLDYTIKCYESFMSGADSFDEMNAELQSKLKDLFNVDAFKLESLEAKNRALNEQIARLEQERSTANKANAERLKRLQKSADLYKDRLGLEIRKIYGEKLQFIFTNIDPKNPESPFMFSLHLNEARDYEVSDSAPHLEGLAEFQENVRKTNNFSAFLANVRKAFTATVYN chain 2: METLSFPRYNVAEIVIHIRNKILTGADGKNLTKNDLYPNPKPEVLHMIYMRALQIVYGIRLEHFYMMPVNSEVMYPHLMEGFLPFSNLVTHLDSFLPICRVNDFETADILCPKAKRTSRFLSGIINFIHFREACRETYMEFLWQYKSSADKMQQLNAAHQEALMKLERLEKEVDEDTTVTIPSAVYVAQLYHQVSKIEWDYECEPGMVKGIHHGPSVAQPIHLDSTQLSRKFISDYLWSLVDTEW |  | binds |
